Reference: PMC4608358
Values joined by “and” are separate entries in the source; they are usually repeats but may differ in a detail not shown here. Identical values can stand only once.

What was measured:
[1] = biological target: wildtype hamster BiP, N-terminally hexahistidine-tagged (hamster) (UniProt G3I8R9); assay: native gel or EMSA; purified BiP diluted to a series of concentrations, equilibrated 48 hr at room temperature, native-PAGE immunoblot; share of species II and III against concentration; crude estimate
[2] = biological target: wildtype hamster BiP, N-terminally hexahistidine-tagged (hamster) (UniProt G3I8R9); assay: SEC-MALS; wildtype BiP 90 µM, Superdex 200 Increase 10/300 in HKM, room temperature

Sequence of wildtype hamster BiP, N-terminally hexahistidine-tagged, G3I8R9 19-654 (natural protein; other documents disagree on this pair) (G3I8R9 19-654): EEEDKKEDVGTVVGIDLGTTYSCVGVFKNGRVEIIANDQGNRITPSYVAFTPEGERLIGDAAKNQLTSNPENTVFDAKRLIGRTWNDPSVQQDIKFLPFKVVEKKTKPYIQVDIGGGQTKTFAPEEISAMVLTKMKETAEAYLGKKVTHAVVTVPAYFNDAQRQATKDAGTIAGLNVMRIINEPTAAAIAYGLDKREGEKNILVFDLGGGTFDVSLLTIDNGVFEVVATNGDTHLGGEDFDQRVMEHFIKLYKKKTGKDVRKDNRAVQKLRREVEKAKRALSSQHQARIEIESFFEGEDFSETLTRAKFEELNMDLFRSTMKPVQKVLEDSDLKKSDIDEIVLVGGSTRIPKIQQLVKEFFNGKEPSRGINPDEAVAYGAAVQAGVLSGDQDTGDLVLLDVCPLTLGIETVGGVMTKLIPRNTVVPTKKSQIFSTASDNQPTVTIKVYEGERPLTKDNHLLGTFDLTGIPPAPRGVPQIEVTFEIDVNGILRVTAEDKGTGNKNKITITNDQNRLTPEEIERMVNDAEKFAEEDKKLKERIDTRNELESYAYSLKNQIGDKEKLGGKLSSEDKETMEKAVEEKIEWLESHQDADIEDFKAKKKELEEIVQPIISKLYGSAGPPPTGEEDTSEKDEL

wildtype hamster BiP, N-terminally hexahistidine-tagged, G3I8R9 19-654 (natural protein; other documents disagree on this pair)
K (1/2max)^II (concentration of BiP at which half of species II dissociated) [1]: 0.45 µM
K (1/2max)^III (concentration of BiP at which half of species III dissociated) [1]: 0.74 µM
stoichiometry N [2]: 2 and 3
